The values that follow come from article PMC5413349.

This experiment deals with human cytoplasmic dynein-1 complex (recombinant, SNAPf tag on the heavy chain) (human) (UniProt Q14204).

B1: human full-length Lissencephaly-1 (LIS1), unlabelled (natural protein)
chain: MVLSQRQRDELNRAIADYLRSNGYEEAYSVFKKEAELDVNEELDKKYAGLLEKKWTSVIRLQKKVMELESKLNEAKEEFTSGGPLGQKRDPKEWIPRPPEKYALSGHRSPVTRVIFHPVFSVMVSASEDATIKVWDYETGDFERTLKGHTDSVQDISFDHSGKLLASCSADMTIKLWDFQGFECIRTMHGHDHNVSSVAIMPNGDHIVSASRDKTIKMWEVQTGYCVKTFTGHREWVRMVRPNQDGTLIASCSNDQTVRVWVVATKECKAELREHEHVVECISWAPESSYSSISEATGSETKKSGKPGPFLLSGSRDKTIKMWDVSTGMCLMTLVGHDNWVRGVLFHSGGKFILSCADDKTLRVWDYKNKRCMKTLNAHEHFVTSLDFHKTAPYVVTGSVDQTVKVWECR
In the case of B1, the mean duration of plus-end tracking events of dynein on growing microtubules with EB1 and dynactin after addition of LIS1 was found to be 14 s.
